These results are taken from patent publication US20230265179A1 (TWIST BIOSCIENCE, published 2023).

B1: IL1RL2-295 (antibody, V domains shown)
VH: EVQLLESGGGLVQPGGSLRLSCAASGFSFTTYAMSWVRQAPGKGLEWVSGISGGGGSTYYADSVKGRFTISRDNSKNTLYLQMNSLRAEDTAVYYCAKLVLSNRGGVDYWGQGTLVTVSS
VL: DIQMTQSPSSLSASVGDRVTITCRASQSIRSHLNWYQQKPGKAPKLLIYRASTLQTGVPSRFSGSGSGTDFTLTISSLQPEDFATYYCQQSYSILPVTFGGGTKVEIK
notes: IgG2
B2: IL1RL2-167 (antibody, V domains shown)
VH: EVQLLESGGGLVQPGGSLRLSCAASGFTFSNYGVSWVRQAPGKGLEWVSGITRSGSTNYRDSVKGRFTISRDNSKNTLYLQMNSLRAEDTAVYYCAKGRRIFDYWGQGTLVTVSS
VL: DIQMTQSPSSLSASVGDRVTITCSGDKLGHTYTSWYQQKPGKAPKLLIYGKKNRPSGVPSRFSGSGSGTDFTLTISSLQPEDFATYYCQQSYSTPGITFGQGTKVEIK
notes: IgG2
B3: IL1RL2-181 (antibody, V domains shown)
VH: EVQLLESGGGLVQPGGSLRLSCAASGFTFGQESMYWVRQAPGKGLEWVSGITRSGSTNYRDSVKGRFTISRDNSKNTLYLQMNSLRAEDTAVYYCAKQLGEEFDYWGQGTLVTVSS
VL: DIQMTQSPSSLSASVGDRVTITCTGDKLAEKYVSWYQQKPGKAPKLLIYAKNNRPSGVPSRFSGSGSGTDFTLTISSLQPEDFATYYCQQWSSNPLTFGQGTKVEIK
notes: IgG2
B4: IL1RL2-176 (antibody, V domains shown)
VH: EVQLLESGGGLVQPGGSLRLSCAASGFTFSNSYISWVRQAPGKGLEWVSSIRGSSSSTYYADSVKGRFTISRDNSKNTLYLQMNSLRAEDTAVYYCARSYGGGFDYWGQGTLVTVSS
VL: DIQMTQSPSSLSASVGDRVTITCSGDNLRGYYASWYQQKPGKAPKLLIYQNDKRPSGVPSRFSGSGSGTDFTLTISSLQPEDFATYYCFQGSHAPLTFGQGTKVEIK
notes: IgG2
B5: IL1RL2-185 (antibody, V domains shown)
VH: EVQLLESGGGLVQPGGSLRLSCAASGFTFDKYLMSWVRQAPGKGLEWVSAISGRGDNTYYADSVKGRFTISRDNSKNTLYLQMNSLRAEDTAVYYCARGGDTYFDYFDYWGQGTLVTVSS
VL: DIQMTQSPSSLSASVGDRVTITCRASQSIRRFLNWYQQKPGKAPKLLIYQASSLQSGVPSRFSGSGSGTDFTLTISSLQPEDFATYYCQQSHSSPLTFGQGTKVEIK
notes: IgG2
B6: IL1RL2-297 (antibody, V domains shown)
VH: EVQLLESGGGLVQPGGSLRLSCAASGFTFRSHAMSWVRQAPGKGLEWVSALSGSGGRTYYADSVKGRFTISRDNSKNTLYLQMNSLRAEDTAVYYCASSGAGVSDYWGQGTLVTVSS
VL: DIQMTQSPSSLSASVGDRVTITCRASQSIDTNLNWYQQKPGKAPKLLIYAASNLQHGVPSRFSGSGSGTDFTLTISSLQPEDFATYYCQQSSSIPLTFGGGTKVEIK
notes: IgG2
B7: IL1RL2-178 (antibody, V domains shown)
VH: EVQLLESEGGLVQPGGSLRLSCAASGFTFSGYDMQWVRQAPGKGLEWVSSISSTGFKTYYADSVKGRFTISRDNSKNTLYLQMNSLRAEDTAVYYCAKAGPPFAGSRGNSFDYWGQGTLVTVSS
VL: DIQMTQSPSSLSASVGDRVTITCSGDNLRGYYASWYQQKPGKAPKLLIYGTSDLQSGVPSRFSGSGSGTDFTLTISSLQPEDFATYYCYSRDRSGNHLGMFGQGTKVEIK
notes: IgG2
B8: IL1RL2-283 (antibody, V domains shown)
VH: EVQLLESGGGLVQPGGSLRLSCAASGFAFRSYAMSWVRQAPGKGLEWVSAITGSGTSTYYADSVKGRFTISRDNSKNTLYLQMNSLRAEDTAVYYCARDILWNYRVADYWGQGTLVTVSS
VL: DIQMTQSPSSLSASVGDRVTITCRASLSISRYLNWYQQKPGKAPKLLIYTASSLHSGVPSRFSGSGSGTDFTLTISSLQPEDFATYYCQQSYRTPPWTFGGGTKVEIK
notes: IgG2
B9: IL1RL2-290 (antibody, V domains shown)
VH: EVQLLESGGGLVQPGGSLRLSCAASGFAFRSYAMSWVRQAPGKGLEWVSAITGSGTSTYYADSVKGRFTISRDNSKNTLYLQMNSLRAEDTAVYYCARDILWNYHVADYWGQGTLVTVSS
VL: DIQMTQSPSSLSASVGDRVTITCRASLSISRYLNWYQQKPGKAPKLLIYTASSLHSGVPSRFSGSGSGTDFTLTISSLQPEDFATYYCQQSYRTPPWTFGGGTKVEIK
notes: IgG2
B10: IL1RL2-162 (antibody, V domains shown)
VH: EVQLLESGGGLVQPGGSLRLSCAASGFTFNHYGMGWVRQAPGKGLEWVSSIGANGAPTYYADSVKGRFTISRDNSKNTLYLQMNSLRAEDTAVYYCAKSYLSGTFDYWGQGTLVTVSS
VL: DIQMTQSPSSLSASVGDRVTITCQGGSPRSYYASWYQQKPGKAPKLLIYHTSRLQDGVPSRFSGSGSGTDFTLTISSLQPEDFATYYCQSYDKSNVVFGQGTKVEIK
notes: IgG2
B11: IL1RL2-292 (antibody, V domains shown)
VH: EVQLLESGGGLVQPGGSLRLSCAASGLTFNNYAMSWVRQAPGKGLEWVSGISGSSGNTYYVDSVKGRFTISRDNSKNTLYLQMNSLRAEDTAVYYCARGPNHGMFDAWGQGTLVTVSS
VL: DIQMTQSPSSLSASVGDRVTITCRASQSIGYYLNWYQQKPGKAPKLLIYSATSLQSGVPSRFSGSGSGTDFTLTISSLQPEDFATYYCQHRGTFGGGTKVEIK
notes: IgG2
B12: IL1RL2-284 (antibody, V domains shown)
VH: EVQLLESGGGLVQPGGSLRLSCAASGFTFTSHAMSWVRQAPGKGLEWVSGISGSGANTYYADSVKGRFTISRDNSKNTLYLQMNSLRAEDTAVYYCARDGIVVVPAANHSYYYYYGMDVWGQGTLVTVSS
VL: DIQMTQSPSSLSASVGDRVTITCRASQSISVHLNWYQQKPGKAPKLLIYIASNLQSGVPSRFSGSGSGTDFTLTISSLQPEDFATYYCQQTYTTPYTFGGGTKVEIK
notes: IgG2
B13: IL1RL2-293 (antibody, V domains shown)
VH: EVQLLESGGGLVQPGGSLRLSCAASGFTISNYAMSWVRQAPGKGLEWVSGISGSGSSTFYADSVKGRFTISRDNSKNTLYLQMNSLRAEDTAVYYCAKPDSGQWWGVDQWGQGTLVTVSS
VL: DIQMTQSPSSLSASVGDRVTITCRASQSIGNYVNWYQQKPGKAPKLLIYAASNLEDGVPSRFSGSGSGTDFTLTISSLQPEDFATYYCQQSYNTPLTFGGGTKVEIK
notes: IgG2
B14: IL1RL2-296 (antibody, V domains shown)
VH: EVQLLESGGGLVQPGGSLRLSCAASGFIFSNFAMSWVRQAPGKGLEWVSGISGSGSSTNYADSVKGRFTISRDNSKNTLYLQMNSLRAEDTAVYYCARGFWSGYYGMDVWGQGTLVTVSS
VL: DIQMTQSPSSLSASVGDRVTITCRASRSISTYLNWYQQKPGKAPKLLIYAASSSQSGVPSRFSGSGSGTDFTLTISSLQPEDFATYYCQQTYATPWTFGGGTKVEIK
notes: IgG2
B15: IL1RL2-289 (antibody, V domains shown)
VH: EVQLLESGGGLVQPGGSLRLSCAASGFTFTKYAMSWVRQAPGKGLEWVSGISGSGGYTYYADSVKGRFTISRDNSKNTLYLQMNSLRAEDTAVYYCARGAGSPDYWGQGTLVTVSS
VL: DIQMTQSPSSLSASVGDRVTITCRASQNIRSYLNWYQQKPGKAPKLLIYATSNLQRGVPSRFSGSGSGTDFTLTISSLQPEDFATYYCQQSYRAPYIFGGGTKVEIK
notes: IgG2
B16: IL1RL2-158 (antibody, V domains shown)
VH: EVQLLESGGGLVQPGGSLRLSCAASGFTFSSYFMSWVRQAPGKGLEWVSEISPSGSETYYADSVKGRFTISRDNSKNTLYLQMNSLRAEDTAVYYCARAYSSGWSLPFDYWGQGTLVTVSS
VL: DIQMTQSPSSLSASVGDRVTITCRASQGVRTSLAWYQQKPGKAPKLLIYATSTLQSGVPSRFSGSGSGTDFTLTISSLQPEDFATYYCAQGLRKPKTFGQGTKVEIK
notes: IgG2
B17: IL1RL2-184 (antibody, V domains shown)
VH: EVQLLESGGGLVQPGGSLRLSCAASGFTFSDYDMSWVRQAPGKGLEWVSSISPSGGWTEYADSVKGRFTISRDNSKNTLYLQMNSLRAEDTAVYYCARHDYSNYPYFDYWGQGTLVTVSS
VL: DIQMTQSPSSLSASVGDRVTITCRASQTIGDYLNWYQQKPGKAPKLLIYTASNLQNGVPSRFSGSGSGTDFTLTISSLQPEDFATYYCQQGFSNPWTFGQGTKVEIK
notes: IgG2
B18: IL1RL2-173 (antibody, V domains shown)
VH: EVQLLESGGGLVQPGGSLRLSCAASGFTFSEYGMWWVRQAPGKGLEWVSEISPSGGYTYYADSVKGRFTISRDNSKNTLYLQMNSLRAEDTAVYYCAEQDVKGSSSFDYWGQGTLVTVSS
VL: DIQMTQSPSSLSASVGDRVTITCRPNQNIATYINWYQQKPGKAPKLLIYQMSHLASGVPSRFSGSGSGTDFTLTISSLQPEDFATYYCQQSYSTPSFGQGTKVEIK
notes: IgG2
B19: IL1RL2-170 (antibody, V domains shown)
VH: EVQLLESGGGLVQPGGSLRLSCAASGFTFPVYNMAWVRQAPGKGLEWVSSISGYGSTTYYADSVKGRFTISRDNSKNTLYLQMNSLRAEDTAVYYCAKSYGAFDYWGQGTLVTVSS
VL: DIQMTQSPSSLSASVGDRVTITCSASQDINKYLNWYQQKPGKAPKLLIYHTSRLQDGVPSRFSGSGSGTDFTLTISSLQPEDFATYYCQQSYTTPWTFGQGTKVEIK
notes: IgG2

The target in the test is T1, IL1RL2 over-expressed on Expi293 cells (UniProt Q9HB29 20-575, limits assumed).
T1 construct: whole, on cells; Target of the flow cytometry assay; MFI ratio is over-expressing cells over parent cells
T1 sequence (looked up): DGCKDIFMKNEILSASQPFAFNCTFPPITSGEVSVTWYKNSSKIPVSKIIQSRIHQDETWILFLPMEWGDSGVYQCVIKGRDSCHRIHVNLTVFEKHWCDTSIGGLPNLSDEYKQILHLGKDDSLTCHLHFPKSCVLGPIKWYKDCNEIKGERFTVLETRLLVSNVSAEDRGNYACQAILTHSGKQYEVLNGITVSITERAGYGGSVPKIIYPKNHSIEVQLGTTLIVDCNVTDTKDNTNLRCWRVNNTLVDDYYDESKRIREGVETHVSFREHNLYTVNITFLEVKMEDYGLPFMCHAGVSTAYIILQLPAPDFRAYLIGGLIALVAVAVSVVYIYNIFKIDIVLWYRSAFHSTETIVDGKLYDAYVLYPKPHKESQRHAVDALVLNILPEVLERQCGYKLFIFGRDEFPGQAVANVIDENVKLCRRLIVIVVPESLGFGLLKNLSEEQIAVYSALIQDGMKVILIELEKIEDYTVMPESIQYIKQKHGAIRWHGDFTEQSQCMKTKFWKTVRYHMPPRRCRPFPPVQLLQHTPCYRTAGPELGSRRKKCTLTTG
As to the kind of experiment: flow cytometry, over-expressing Expi293 vs parent cells, 100 nM antibody.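 Further: ratio is mean fluorescence intensity on over-expressing Expi293 cells divided by that measured on parental Expi293 cells.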 On the technique in general: Flow cytometry measures light scatter and fluorescence of single cells or particles in a stream.
Method: All incubations and washes were in buffer containing PBS+1% BSA. MFI Ratio is defined by the mean fluorescence intensity (MFI) of the cytokine over-expressing Expi293 cell over the Expi293 parent cell. […] EC50 was calculated in GraphPad Prism.
With B1, the “100 nM FACS (MFI Ratio)” value was 3.07. With B2 the figure was 3.08. With B3 the figure was 1.02. For the molecule B4, the “100 nM FACS (MFI Ratio)” value amounted to 0.72.

Regarding B5, the “100 nM FACS (MFI Ratio)” value was found to be 205.

Regarding B6, the “100 nM FACS (MFI Ratio)” value turned out to be 7.44. With B7 the figure was 37; with B8, 3.98.

As for B9, the “100 nM FACS (MFI Ratio)” value was 8.4. As for B10, the “100 nM FACS (MFI Ratio)” value is 4.26. With B11 the figure was 11.7.

On to B12, for which the “100 nM FACS (MFI Ratio)” value was 8.71.

Consider B13, for which the “100 nM FACS (MFI Ratio)” value amounted to 10.2. The figure for B14 is 19.9. With B15 the figure was 5.31; with B16, 14.8; with B17, 3.19. With B18 the figure was 11.2. For B19, the “100 nM FACS (MFI Ratio)” value came out at 3.95.
